Measured values: US5442053A, “Salts and mixtures of hyaluronic acid with pharmaceutically active substances, pharmaceutical compositions containing the same and methods for administration of such compositions” (Fidia, S.p.A., priority 1983, dated 1995)

Test system: corneal epithelium
Assay: Healing activity of EGF vehicled in hyaluronic acid, epithelial lesion of rabbit cornea
Assay type: in vivo, rabbit (male albino New Zealand)
Conditions: for healing of lesions in the corneal epithelium: single eye
Method: The experiments were carried out on male albino New Zealand rabbits (average weight 1.8 kg). The animals, after a period of adaptation of about 5 days, underwent epithelial lesion of the cornea in suitable conditions of local anesthetic with Novesina (4%). The lesion consisted of a monocular scarification of a circular area in the optic zone effected by a concave glass cylinder (.phi. 3mm) with a sharp edge.
The animals were subdivided into groups, each group consisting of 5 animals, and subjected to pharmacological treatment by conjunctival instillation as follows:
Treatment was effected on the right eye (RE) by conjunctival instillation of 2 drops every 8 hours for 3 total administrations.
Healing of the corneal epithelium was evaluated by observation of the eye and photographic documentation with a slit lamp at various intervals after scarification: 0, 8 hours, 16 hours, 24 hours, 32 hours, 40 hours, and 48 hours.

B1: Epidermal growth factor (protein, UniProt P01133 23-1207, looked up)
Pro-epidermal growth factor: PQHWSCPEGTLAGNGNSTCVGPAPFLIFSHGNSIFRIDTEGTNYEQLVVDAGVSVIMDFHYNEKRIYWVDLERQLLQRVFLNGSRQERVCNIEKNVSGMAINWINEEVIWSNQQEGIITVTDMKGNNSHILLSALKYPANVAVDPVERFIFWSSEVAGSLYRADLDGVGVKALLETSEKITAVSLDVLDKRLFWIQYNREGSNSLICSCDYDGGSVHISKHPTQHNLFAMSLFGDRIFYSTWKMKTIWIANKHTGKDMVRINLHSSFVPLGELKVVHPLAQPKAEDDTWEPEQKLCKLRKGNCSSTVCGQDLQSHLCMCAEGYALSRDRKYCEDVNECAFWNHGCTLGCKNTPGSYYCTCPVGFVLLPDGKRCHQLVSCPRNVSECSHDCVLTSEGPLCFCPEGSVLERDGKTCSGCSSPDNGGCSQLCVPLSPVSWECDCFPGYDLQLDEKSCAASGPQPFLLFANSQDIRHMHFDGTDYGTLLSQQMGMVYALDHDPVENKIYFAHTALKWIERANMDGSQRERLIEEGVDVPEGLAVDWIGRRFYWTDRGKSLIGRSDLNGKRSKIITKENISQPRGIAVHPMAKRLFWTDTGINPRIESSSLQGLGRLVIASSDLIWPSGITIDFLTDKLYWCDAKQSVIEMANLDGSKRRRLTQNDVGHPFAVAVFEDYVWFSDWAMPSVMRVNKRTGKDRVRLQGSMLKPSSLVVVHPLAKPGADPCLYQNGGCEHICKKRLGTAWCSCREGFMKASDGKTCLALDGHQLLAGGEVDLKNQVTPLDILSKTRVSEDNITESQHMLVAEIMVSDQDDCAPVGCSMYARCISEGEDATCQCLKGFAGDGKLCSDIDECEMGVPVCPPASSKCINTEGGYVCRCSEGYQGDGIHCLDIDECQLGEHSCGENASCTNTEGGYTCMCAGRLSEPGLICPDSTPPPHLREDDHHYSVRNSDSECPLSHDGYCLHDGVCMYIEALDKYACNCVVGYIGERCQYRDLKWWELRHAGHGQQQKVIVVAVCVVVLVMLLLLSLWGAHYYRTQKLLSKNPKNPYEESSRDVRSRRPADTEDGMSSCPQPWFVVIKEHQDLKNGGQPVAGEDGQAADGSMQPTSWRQEPQLCGMGTEQGCWIPVSSDKGSCPQVMERSFHMPSYGTQTLEGGVEKPHSLLSANPLWQQRALDPPHQMELTQ
modifications: Pro-epidermal growth factor
notes: EGF (Epidermal growth factor), dissolved in saline (0.5 mg/5 ml)
healing of lesions in the corneal epithelium (0 hours after scarification): + | healing of lesions in the corneal epithelium (8 hours after scarification): + | healing of lesions in the corneal epithelium (16 hours after scarification): + | animals healed (24 hours after scarification): 4/5 | healing of lesions in the corneal epithelium (24 hours after scarification): - and + | healing of lesions in the corneal epithelium (48 hours after scarification): -
